# Laboratory results: US9879094B2, “Nucleic acid molecules encoding for BACE1 antibodies” (Genentech, Inc., priority 2010, dated 2018)
# Where “and” joins values, the source holds several entries; their conditions need not be identical. Identical values can stand only once. Entries after “also recorded” stand apart in the source; their conditions may differ.
# Experiments:
# [1] = tested on: Aβ1-40 in wild-type C57Bl/6J mice; assay: Wild-type C57Bl/6J mice, IP dosing, Aβ1-40 levels; assay type: in vivo, mouse
# Experimental: Additional experiments with wild-type C57Bl/6J mice were performed in which 100 mg/kg of YW412.8.31, or a control IgG, was administered systemically. Levels of Aβ1-40 in both the plasma and forebrain of treated animals four hours after a single intraperitoneal (IP) injection were determined. Blood was collected from animals by cardiac puncture to isolate plasma.
# Following PBS perfusion, the brain was harvested and forebrain from one hemibrain was prepared in PK buffer (1% NP-40 in PBS, with Roche complete protease inhibitors) whereas forebrain from the other hemibrain was homogenized in 5M GuHCL, 50 mM Tris pH 8.0, and further diluted in Casein Blocking Buffer (0.25% casein/0.05% sodium azide, 20 μg/ml aprotinin/5 mM EDTA, pH 8.0/10 μg/ml leupeptin in PBS) for Aβ1-40 analysis.
# Additional experiments were performed in order to determine the effect of elevated brain antibody levels through repeated dosing. YW412.8.31 antibody, or control IgG, was administered at 30 or 100 mg/kg IP every 4 days for a total of 3 doses. In this study the levels of Aβ1-40 in both the plasma and forebrain of treated animals 4 hours post last dose were measured. Again, ˜50% reduction in plasma Aβ1-40 levels following multi-dosing at both 30 and 100 mg/kg was observed (FIG. 22, panel B). […] YW412.8.31 antibody concentrations in serum were 480±210 and 1500±440 μg/mL, and concentrations in brain were 0.9±0.6 μg/g (5.9±4.3 nM) and 3.0±1.6 μg/g (20±10 nM) following administration at 30 and 100 mg/kg given every 4 days, respectively.
# human BACE1 ECD = target: T1, human BACE1 ECD (Homo sapiens, UniProt P56817); assay: BIAcore SPR binding kinetics, human BACE1
# T1 construct: human BACE1 ECD or murine BACE1 ECD (amino acids 1-457) was injected in PBT buffer
# Experimental: The binding kinetics of YW412.8.31 was assessed. Briefly, binding affinities of anti-BACE1 IgGs were measured by surface plasmon resonance (SPR) using a BIAcore™-3000 instrument. YW412.8.31 anti-BACE1 human IgG was captured by mouse anti-human Fc antibody (GE Healthcare, cat# BR-1008-39) coated on CM5 biosensor chips to achieve approximately 100 response units (RU). For kinetics measurements, two-fold serial dilutions (0.98 nM to 125 nM) of human BACE1 ECD or murine BACE1 ECD (amino acids 1-457) was injected in PBT buffer (PBS with 0.05% Tween 20) at 25° C. with a flow rate of 30 μl/min. Association rates (kon) and dissociation rates (koff) were calculated using a simple one-to-one Langmuir binding model (BIAcore™ Evaluation Software version 3.2). The equilibrium dissociation constant (KD) was calculated as the ratio koff/kon.
# mouse cortical neurons = assay: Antibody internalization in primary neurons; assay type: cell-based
# Experimental: BACE1 is known to be expressed intracellularly, particularly in the Golgi. To ascertain whether or not YW412.8.31 interacts with BACE1 in an intracellular environment, internalization studies were performed. One set of neuronal cultures was prepared from E13.5 dorsal root ganglia (DRG) explants, and a second set of neuronal cultures was prepared from E16.5 dissociated cortical neurons from BACE1+/+ or BACE1−/− mice and cultured for 24 or 72 hours, respectively, at 37° C. Media containing 0.5 μM YW412.8.31 anti-BACE1 antibody was added to the cultures for time periods varying from 30 minutes to 2 hours, and incubated at either 4° C. or 37° C. Unbound antibody was washed out thoroughly with PBS after treatment. […] Bound antibody was detected using a secondary Alexa 568-conjugated anti-Human IgG1 antibody (Molecular Probes) according to the manufacturer's directions.
# Additionally, mouse cortical neurons were cultured in the presence of YW412.8.31 anti-BACE1 antibody or a control IgG for 10 minutes or 3 hours, after which the antibody was detected by immunostaining Neuronal cultures were prepared from E15.5 dissociated cortical neurons, and cultured for 14 DIV. […] Bound antibody was detected using an Alexa 568-conjugated anti-Human IgG1 secondary antibody (Molecular Probes). […]
# T1 sequence (P56817 22-457): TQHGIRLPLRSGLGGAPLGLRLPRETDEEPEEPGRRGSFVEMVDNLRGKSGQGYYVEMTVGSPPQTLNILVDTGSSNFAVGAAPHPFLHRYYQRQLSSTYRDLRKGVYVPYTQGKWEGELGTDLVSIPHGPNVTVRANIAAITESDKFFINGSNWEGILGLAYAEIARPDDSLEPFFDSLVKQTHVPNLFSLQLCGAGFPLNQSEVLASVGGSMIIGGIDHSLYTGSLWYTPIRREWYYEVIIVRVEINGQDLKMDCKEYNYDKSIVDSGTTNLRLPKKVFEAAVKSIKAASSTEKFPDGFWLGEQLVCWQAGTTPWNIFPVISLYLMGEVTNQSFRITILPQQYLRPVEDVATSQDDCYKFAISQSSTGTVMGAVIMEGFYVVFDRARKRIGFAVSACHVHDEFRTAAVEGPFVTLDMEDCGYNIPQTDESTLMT
molecule,measurement,setting,value
"YW412.8.31: affinity matured form of YW412.8 anti-BACE1 antibody (antibody, V domains shown) VH: EVQLVESGGGLVQPGGSLRLSCAASGFTFLGYGIHWVRQAPGKGLEWVGWISPAGGSTDYADSVKGRFTISADTSKNTAYLQMNSLRAEDTAVYYCARGPFSPWVMDYWGQGTLVTVSS VL: DIQMTQSPSSLSASVGDRVTITCRASQDVSTAVAWYQQKPGKAPKLLIYSASFLYSGVPSRFSGSGSGTDFTLTISSLQPEDFATYYCQQFPTYLPTFGQGTKVEIK",reduction of forebrain Aβ1-40,"[1]; 30 mg/kg IP, 3 doses every 4 days",no reduction; also recorded: not reduced
same,reduction of forebrain Aβ1-40,"[1]; 100 mg/kg IP, 3 doses every 4 days",42%
same,change in forebrain Aβ1-40,"[1]; 100 mg/kg single IP, 4 hours",no change; also recorded: not reduced
same,reduction of plasma Aβ1-40,"[1]; 100 mg/kg single IP, 4 hours",~50% and 48%
same,reduction of plasma Aβ1-40,"[1]; 30 and 100 mg/kg IP, 3 doses every 4 days, 4 hours after last dose",~50% and 50-53%
same,Binding to BACE1,human BACE1 ECD; at both pH 7.0 and 5.0,confirmed
same,KON,"human BACE1 ECD; human BACE1, IgG captured, pH 7.0, 25° C.",1.1 × 10^5 M^−1S^−1 and 1.05 × 10^5 M^−1S^−1
same,localization of antibody signal,"mouse cortical neurons; 1 μM, 10 minutes to 3 hours, 37° C.",localized intracellularly
same,co-localization with vesicular compartment markers,"mouse cortical neurons; TfR, VAMP4, LAMP1 co-staining","co-localized with markers for early endosomes and TGN, but not lysosomes"
